Assay results: patent US20240255495

Key:
thrombin = thrombin (UniProt P00734+P00734); experiment: FP
FOXM1 = target: T1, FOXM1 (UniProt Q08050); details: PS; cited from earlier work
T1 sequence: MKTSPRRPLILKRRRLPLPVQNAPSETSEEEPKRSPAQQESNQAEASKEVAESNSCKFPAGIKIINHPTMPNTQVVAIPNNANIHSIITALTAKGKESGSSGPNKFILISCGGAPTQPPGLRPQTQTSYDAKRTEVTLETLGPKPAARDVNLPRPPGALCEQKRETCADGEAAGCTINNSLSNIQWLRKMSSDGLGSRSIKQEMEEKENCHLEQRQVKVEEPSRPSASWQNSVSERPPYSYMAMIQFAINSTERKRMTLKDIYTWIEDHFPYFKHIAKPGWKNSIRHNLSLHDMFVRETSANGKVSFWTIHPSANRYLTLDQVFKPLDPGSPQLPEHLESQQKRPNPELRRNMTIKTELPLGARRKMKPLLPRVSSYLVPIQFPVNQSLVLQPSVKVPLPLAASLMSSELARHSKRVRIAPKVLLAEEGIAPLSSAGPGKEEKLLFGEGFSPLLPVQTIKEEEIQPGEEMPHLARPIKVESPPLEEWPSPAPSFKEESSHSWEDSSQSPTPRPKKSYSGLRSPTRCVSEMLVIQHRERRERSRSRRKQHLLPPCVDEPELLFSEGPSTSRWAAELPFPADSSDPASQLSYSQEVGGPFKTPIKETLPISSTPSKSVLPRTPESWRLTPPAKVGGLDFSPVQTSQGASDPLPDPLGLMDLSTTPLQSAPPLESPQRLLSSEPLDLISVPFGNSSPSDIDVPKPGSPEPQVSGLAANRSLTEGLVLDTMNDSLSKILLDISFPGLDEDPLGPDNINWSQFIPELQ

GGTTGGTGTGGTTGG [TBA(3)-2b]
Kd (thrombin; T3 replaced by 5-ethynyl-dU clicked to inactivated N-acyl sulfonamide biotin warhead 2b): 395 nM

GGTTGGTGTGGTTGG [TBA(9)-2b]
Kd (thrombin; T9 replaced by 5-ethynyl-dU clicked to inactivated N-acyl sulfonamide biotin warhead 2b): 520 nM

TCACTTCACACCGCATCTCTACGTCCGGTTGCGCTTTCCTTT [FBA]
Kd (FOXM1): 65 nM
